Measured values: patent publication US8367060B2, “Pharmaceutical composition containing arazyme for the prevention of liver dysfunction” (Insect Biotech Co., Ltd., priority 2006, dated 2013)
Entries after “also recorded” stand apart in the source; their conditions may differ.

Experiments:
SMP30 [1] = test: Expression of SMP30 in liver cells by immunoblotting; assay type: in vivo; conditions: wild type mice; 100 mg/kg oral before CCl4; compared with CCl4 only (G2)
Protocol: (§1) Wild type mice and SMP30 knock-out mice were divided, by 5 of each, into negative control groups (G1, G5), positive control groups (G2, G6), two of experimental group 1 (G3, G7) and two of experimental group 2 (G4, G8) (Table 1). Intraperitoneal administration of olive oil was performed once to negative control mice (G1, G5), while intraperitoneal administration of CCl4 (0.4 ml/kg) was performed once to positive control mice (G2, G6). In the meantime, 100 mg/kg of vitamin C dissolved in tap water was orally administered to experimental group 1 mice (G3, G7) one day before the intraperitoneal administration of CCl4 (0.4 ml/kg). 100 mg/kg of arazyme dissolved in tap water was orally administered to experimental group 2 mice (G4, G8) one day before the intraperitoneal administration of CCl4 (0.4 ml/kg). 24 hours after the administration of CCl4, autopsy was performed in every mouse and samples were taken from each mouse for histopathological test.
(§2) The expression of SMP30 in liver cells was investigated by immunoblotting. First, the liver tissues frozen at −70° C. were homogenized in RIPA buffer containing 0.1 mM sodium orthovandate (Na3VO4) and protease inhibitor cocktail tablet (Roche, Mannheim, Germany). […] Protein concentration was measured by Bradford method and each protein sample proceeded onto 10% SDS-polyacrylamide gel at the concentration of 80 µg/well, followed by electrophoresis. […]

SMP30 [2] = test: Immunohistochemical observation of SMP30 in liver cells; assay type: in vivo; conditions: wild type mice, 100 mg/kg oral before CCl4, compared with CCl4 alone
Protocol: as §1
To observe SMP30 in liver cells immunohistochemically, paraffin embedded tissues fixed with formalin were cut into 4 μm thick sections, followed by deparaffinization. To inhibit the activity of endogenous peroxidase, the sections were treated in 3% H2O2 for 30 minutes and washed with 0.01 M PBS. To increase antigen expression of the tissues, the sections were treated with 0.01 M citrate buffer, followed by heat treatment using microwave. […]

P-smad3 [3] = test: Expression of P-smad3 in liver cells by immunoblotting; assay type: in vivo; conditions: SMP30 knock-out mice; compared with CCl4 alone (G6)
Protocol: as §1, §2

P-smad3 [4] = test: Immunohistochemical observation of P-smad3 expression in liver cells; assay type: in vivo, mice; conditions: for P-smad3 immune response (immunohistochemistry): 100 mg/kg oral before CCl4, 100 mg/kg
liver cells = test: Histopathological observation on liver cells (H&E) in CCl4-induced acute liver injury; assay type: in vivo, mice; conditions: for necrosis in liver cells: 100 mg/kg oral one day before CCl4 0.4 ml/kg i.p., autopsy 24 hours after CCl4
From the text: In the present invention, male wild type C57BL/6(WT) at 12 weeks and SMP30 knock-out C57BL/6(KO) mice were used to induce liver injury by CCl4 and then the relation of SMP30 with arazyme was investigated. 10 male and 20 female SMP30 knock-out C57BL/6 mice were distributed from Tokyo Metropolitan Institute of Gerontology, which were then raised in the animal laboratory at Department of Pathology, College of Veterinary Medicine, Kyungpook National University, Korea. Among F1 mice generated by breeding, knock-out mice were selected by tail DNA genotyping by PCR.
Wild type mice were quarantined and adapted for 7 days in the animal laboratory. During the adaptation, every symptom was checked and only healthy animals were selected. Both wild type and SMP30 knock-out mice were 12 weeks old, excluding the difference in age.
Rats were adapted and raised in an animal facility where temperature was regulated to 22±3° C., humidity was adjusted to 55±10% and light was also regulated to 12L/12D (08:00 lights on, 20:00 lights out). The environmental conditions were checked regularly (every three months). After environmental evaluation, no changes in important conditions were recognized. During the whole experiment period, rats were raised in polycarbonate cages [240 W×390 L×175 H (mm)] by up to 5 per cage. Skin mark using an oil magic pen and individual identification card were used for distinguishment. Feed for laboratory animals (PMI Nutrition International, 505 North 4th Street Richmond, in 47374, USA) was provided at any time after being sterilized by irradiation (13.2 kGy). Tap water was provided using a water bottle at any time after being purified by a carbon filter. Carbon tetrachloride was diluted in olive oil at the concentration of 0.4 ml/kg and administered to […] once to induce liver injury. 24 hours after the administration, autopsy was performed.
as §1, with “24 hours after the administration of CCl4, autopsy was performed in every mouse and samples were taken from each mouse for histopathological test.” left out

rats = test: Acute toxicity test of arazyme, single oral administration; assay type: in vivo, Wistar rats; conditions: female rats, oral 1250, 2500 and 5000 mg/kg once
Protocol: The following experiments were performed to see if arazyme has acute toxicity in rats.
9-week old SPF (specific pathogen-free) Wistar line rats (Orient, Co., Seoul, Korea) were raised in an animal facility (4 groups, 4 rats per group) where temperature was regulated to 22±3° C., humidity was adjusted to 55±10% and light was also regulated to 12L/12D. The rats were quarantined and adapted for one week before being used. During the whole experiment period, the rats were raised in polycarbonate cages [240 W×390 L×175 H (mm)] by up to 5 per cage. Skin mark using an oil magic pen and individual identification card were used for distinguishment. Feed for laboratory animals (PMI Nutrition International, USA) was provided at any time after being sterilized. Tap water was provided using a water bottle at any time after being purified by a carbon filter.
Arazyme of the invention was dissolved in distilled water for injection at the concentrations of 0, 1250, 2500 and 5000 mg/kg, and 10 ml/kg of each arazyme solution was orally administered once to rats using zonde. After one week-adaptation, the rats were divided into four groups. Different concentrations of arazyme were administered to rats at 10 weeks, and general symptoms were checked. To evaluate toxicity of arazyme to organs, autopsy was performed 24 hours after the administration.
After oral-administration of arazyme to female rats, any symptom according to the administration was investigated and behavior, appearance and biological functions of rats were also observed to evaluate toxicity.

[5] = autopsy 24 hours after administration

B1: arazyme: novel protease produced by Aranicola proteolyticus HY-3 (KCTC 0268BP); 51.5 kDa monomer; polypeptide sequence SEQ ID NO: 1 (protein, listed as Aranicola proteolyticus)
chain: MQSTKKAIEITESSLAAASSAYNAVDDLLHYHERGNGIQVNGKDSFSTEQAGLFITRENQTWNGYKVFGQPVKLTFSFPDYKFSSTNVAGDTGLSKFSAEQQQQAKLSLQSWSDVANITFTEVGAGQKANITFGNYSQDRPGHYDYDTQAYAFLPNTIYQGQNLGGQTWYNVNQSNVKHPASEDYGRQTFTHEIGHALGLSHPGDYNAGEGNPTYRDASYAEDTREFSLMSYWSETNTGGDNGGHYAAAPLLDDISAIQHLYGANQTTRTGDTVYGFNSNTGRDFLSTTSNPQKVIFAAWDAGGNDTFDFSGYTANQRINLNEKSFSDVGGLKGNVSIAAGVTIENAIGGSGNDVIVGNAANNVLKGGAGNDVLFGGGGADELWGGAGKDTFVFSAVSDSAPGASDWIKDFQKGIDKIDLSFFNQGAQGGDQIHFVDHFSGAAGEALLSYNASNNVSDLALNIGGHQAPDILVKIVGQVDVATDFIV
modifications: BINDING (192)..(192) Zn binding site
SMP30 expression (immunoblotting) (SMP30 [1]): high | SMP30 expression (immunohistochemistry) (SMP30 [2]): higher; also recorded: more strongly expressed | P-smad3 expression (immunoblotting) (P-smad3 [3]): inhibited | P-smad3 expression, arazyme groups compared with vitamin C groups (P-smad3 [4]; G4, G8 versus G3, G7, wild type and SMP30 knock-out mice): lower | P-smad3 immune response (immunohistochemistry) (P-smad3 [4]; SMP30 knock-out mice, G6, G7 compared with G8): strongly detected in the groups treated with CCl4 alone or together with vitamin C (G6, G7), compared with the group (G8) treated with arazyme | P-smad3 immune response (immunohistochemistry) (P-smad3 [4]; wild type mice, compared with CCl4 only (G2)): strong immune response against P-smad3 was detected in group 2 (G2) treated with CCl4 only, compared with the groups (G3, G4) treated with vitamin C and arazyme; also recorded: strongly observed in CCl4 treated group (G2), compared with the groups treated with vitamin C and arazyme (G3, G4) | necrosis in liver cells (liver cells; SMP30 knock-out C57BL/6 mice): significantly inhibited | injury in liver cells around central vein region (liver cells; arazyme treated group, CCl4 liver injury): only weak injury | necrosis in liver cells (liver cells; wild type C57BL/6 mice): significantly inhibited | apoptosis of liver cells, histological observation (liver cells; wild type and SMP30 knock-out mice with acute liver injury): inhibition of apoptosis of liver cells was observed | appearance (hair coat, periocular region, ears, genitalia, limbs, tail) (rats): no changes | biological functions (respiration, salivation, feces, emesis) (rats): no abnormal symptoms were found | symptoms in relation to motion, walking, temper and convulsions (rats): no specific symptoms | autopsy with naked eyes, organs (rats; [5]): did not cause any abnormal symptom or disorder in every organ | microscopic observation of organs (liver, heart, lung, spleen) (rats; [5]): No pathological changes were observed | autopsy with naked eyes, organs (rats; autopsy 24 hours after administration, listed as Arazyme): no abnormal symptoms were observed
